Reference: FireProtDB (doi:10.1021/bi010565n)

B1: Guanyl-specific ribonuclease T1, P00651 (parent)
chain: MMYSKLLTLTTLLLPTALALPSLVERACDYTCGSNCYSSSDVSTAQAAGYQLHEDGETVGSNSYPHKYNNYEGFDFSVSSPYYEWPILSSGDVYSGGSPGADRVVFNENNQLAGVITHTGASGNNFVECT

Variants of: B1
Conditions: Aspergillus oryzae (strain ATCC 42149 / RIB 40); pH 7; 25 °C; Thermal; DSC; MOPS 30 mM; reversible: yes(0.18); structure 1RN1; whole UniProt chain shown

| Variant | ddG of mutation (higher = less stable) | heat capacity change of unfolding |
| --- | --- | --- |
| V42C | 19.6 kJ/mol | 1.29 kcal/mol/K |

Same assay, conditions: Aspergillus oryzae (strain ATCC 42149 / RIB 40); pH 7; 25 °C; Urea; CD; MOPS 30 mM; reversible: yes(0.18); structure 1RN1; whole UniProt chain shown

| Variant | ddG of mutation (higher = less stable) |
| --- | --- |
| V42C | 22.2 kJ/mol |

Same assay, conditions: Aspergillus oryzae (strain ATCC 42149 / RIB 40); pH 7; Thermal; CD; MOPS 30 mM; reversible: yes(0.18); structure 1RN1; whole UniProt chain shown

| Variant | Tm | change of melting temperature, mutant - wild type (higher = more stable) |
| --- | --- | --- |
| V42C | 41.6 °C | -9.6 °C |

Same assay, conditions: Aspergillus oryzae (strain ATCC 42149 / RIB 40); pH 7; Thermal; DSC; MOPS 30 mM; reversible: yes(0.18); structure 1RN1; whole UniProt chain shown

| Variant | Tm | change of melting temperature, mutant - wild type (higher = more stable) |
| --- | --- | --- |
| V42C | 42.6 °C | -8.9 °C |

Same assay, conditions: Aspergillus oryzae (strain ATCC 42149 / RIB 40); pH 7; 25 °C; Thermal; DSC; MOPS 30 mM; reversible: yes(0.98); structure 1RN1; whole UniProt chain shown

| Variant | ddG of mutation (higher = less stable) | heat capacity change of unfolding |
| --- | --- | --- |
| V42A | 9.16 kJ/mol | 1.29 kcal/mol/K |
| V104T | 13 kJ/mol | 1.29 kcal/mol/K |

Same assay, conditions: Aspergillus oryzae (strain ATCC 42149 / RIB 40); pH 7; Thermal; CD; MOPS 30 mM; reversible: yes(0.98); structure 1RN1; whole UniProt chain shown

| Variant | Tm | change of melting temperature, mutant - wild type (higher = more stable) |
| --- | --- | --- |
| V42A | 43 °C | -8.2 °C |
| V104T | 41.4 °C | -9.8 °C |

Same assay, conditions: Aspergillus oryzae (strain ATCC 42149 / RIB 40); pH 7; Thermal; DSC; MOPS 30 mM; reversible: yes(0.98); structure 1RN1; whole UniProt chain shown

| Variant | Tm | change of melting temperature, mutant - wild type (higher = more stable) |
| --- | --- | --- |
| V42A | 44.5 °C | -7 °C |
| V104T | 40.2 °C | -11.3 °C |

Same assay, conditions: Aspergillus oryzae (strain ATCC 42149 / RIB 40); pH 7; 25 °C; Thermal; DSC; MOPS 30 mM; reversible: yes(1.04); structure 1RN1; whole UniProt chain shown

| Variant | ddG of mutation (higher = less stable) | heat capacity change of unfolding |
| --- | --- | --- |
| V42T | 17.2 kJ/mol | 1.29 kcal/mol/K |

Same assay, conditions: Aspergillus oryzae (strain ATCC 42149 / RIB 40); pH 7; 25 °C; Urea; CD; MOPS 30 mM; reversible: yes(1.04); structure 1RN1; whole UniProt chain shown

| Variant | ddG of mutation (higher = less stable) |
| --- | --- |
| V42T | 13.4 kJ/mol |

Same assay, conditions: Aspergillus oryzae (strain ATCC 42149 / RIB 40); pH 7; Thermal; DSC; MOPS 30 mM; reversible: yes(1.04); structure 1RN1; whole UniProt chain shown

| Variant | Tm | change of melting temperature, mutant - wild type (higher = more stable) |
| --- | --- | --- |
| V42T | 42.1 °C | -9.4 °C |

Same assay, conditions: Aspergillus oryzae (strain ATCC 42149 / RIB 40); pH 7; 25 °C; Thermal; DSC; MOPS 30 mM; reversible: yes(1.03); structure 1RN1; whole UniProt chain shown

| Variant | ddG of mutation (higher = less stable) | heat capacity change of unfolding |
| --- | --- | --- |
| V42S | 19.7 kJ/mol | 1.29 kcal/mol/K |

Same assay, conditions: Aspergillus oryzae (strain ATCC 42149 / RIB 40); pH 7; 25 °C; Urea; CD; MOPS 30 mM; reversible: yes(1.03); structure 1RN1; whole UniProt chain shown

| Variant | ddG of mutation (higher = less stable) |
| --- | --- |
| V42S | 19.5 kJ/mol |

Same assay, conditions: Aspergillus oryzae (strain ATCC 42149 / RIB 40); pH 7; Thermal; CD; MOPS 30 mM; reversible: yes(1.03); structure 1RN1; whole UniProt chain shown

| Variant | Tm | change of melting temperature, mutant - wild type (higher = more stable) |
| --- | --- | --- |
| V42S | 35.6 °C | -15.6 °C |

Same assay, conditions: Aspergillus oryzae (strain ATCC 42149 / RIB 40); pH 7; Thermal; DSC; MOPS 30 mM; reversible: yes(1.03); structure 1RN1; whole UniProt chain shown

| Variant | Tm | change of melting temperature, mutant - wild type (higher = more stable) |
| --- | --- | --- |
| V42S | 36.9 °C | -14.6 °C |

Same assay, conditions: Aspergillus oryzae (strain ATCC 42149 / RIB 40); pH 7; 25 °C; Urea; CD; MOPS 30 mM; reversible: yes(0.98); structure 1RN1; whole UniProt chain shown

| Variant | ddG of mutation (higher = less stable) |
| --- | --- |
| V104T | 17.1 kJ/mol |

Same assay, conditions: Aspergillus oryzae (strain ATCC 42149 / RIB 40); pH 7; 25 °C; Urea; CD; MOPS 30 mM; structure 1RN1; whole UniProt chain shown

| Variant | ddG of mutation (higher = less stable) |
| --- | --- |
| V104A | 17.1 kJ/mol |
| V104C | 15.4 kJ/mol |
| V115S | 20.4 kJ/mol |
| V115T | 12.8 kJ/mol |
| V115C | 14.8 kJ/mol |

Same assay, conditions: Aspergillus oryzae (strain ATCC 42149 / RIB 40); pH 7; Thermal; CD; MOPS 30 mM; structure 1RN1; whole UniProt chain shown

| Variant | Tm | change of melting temperature, mutant - wild type (higher = more stable) |
| --- | --- | --- |
| V104A | 43.3 °C | -7.9 °C |
| V104S | 34.6 °C | -16.6 °C |
| V115S | 29.6 °C | -21.6 °C |
| V115T | 38 °C | -13.2 °C |
| V115C | 46.3 °C | -4.9 °C |
